The values below come from the supplement of paper PMC7125110.

To fix the notation:
B1: glmS ribozyme (parent)
chain: AUAAAAGCGCCAGAACUACAGAAAUGUAGUUGACGAGGAGGAGGUUUAUCGAAUUUUCGGCGGAUGCCUCCAAA

Holding throughout (settings): with glucosamine-6-phosphate
The variants in data set [1] derive from B1. Briefly: self-cleavage kobs at 640 uM GlcN6P; higher = faster cleavage; RNA array. The method in brief:
(§1)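 Glucosamine-6-phosphate (40 μM to 10 mM) in HEPES/KCl/Mg(OAc)2 buffer was flowed over sequenced MiSeq chips, and tiles were imaged over ~14 h. Barcoded ribozyme variants there had been transcribed in situ by E. coli RNA polymerase and were tracked through a hybridised Cy3 probe at 37 °C. One- or two-exponential decay fits to per-tile medians, normalised to baseline and to non-cleaving reference variants, gave kobs. kcat and KM came from weighted Michaelis–Menten fits across concentrations.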

Variants of B1 are the subject of data set [2]. Briefly: self-cleavage kobs at 2500 uM GlcN6P; higher = faster cleavage; RNA array. The essentials:
as §1

Variants of B1 are the subject of data set [3]. Briefly: self-cleavage kobs at 10000 uM GlcN6P; higher = faster cleavage; RNA array. The method in brief: as §1

± gives the standard error. Fewer inactive variants are shown than the library holds. Where only a bound is given, the exact number is not on record here.

Take A6U A12G A39G G63C: the “self-cleavage kobs at 640 uM GlcN6P” value in data set [1] was less than 1e-05 s⁻¹. In addition, the “self-cleavage kobs at 2500 uM GlcN6P” value in data set [2] is less than 1e-05 s⁻¹.

For the variant A12U A15C A48G A52U G66A C70G, in data set [1], the “self-cleavage kobs at 640 uM GlcN6P” value was less than 1e-05 s⁻¹.

For the variant G7A C10U C16U U65C, the “self-cleavage kobs at 640 uM GlcN6P” value in data set [1] is less than 1e-05 s⁻¹.

A39U C50G A52U G59U C67G: the “self-cleavage kobs at 640 uM GlcN6P” value in data set [1] is less than 1e-05 s⁻¹. Further, in data set [3], the “self-cleavage kobs at 10000 uM GlcN6P” value is less than 1e-05 s⁻¹.

For C11A C50U G59C, the “self-cleavage kobs at 640 uM GlcN6P” value in data set [1] is less than 1e-05 s⁻¹. Moreover, the “self-cleavage kobs at 2500 uM GlcN6P” value in data set [2] was less than 1e-05 s⁻¹.

With A14G A15G U31G U45G C61G, in data set [1], the “self-cleavage kobs at 640 uM GlcN6P” value was less than 1e-05 s⁻¹. For the same variant, in data set [2], the “self-cleavage kobs at 2500 uM GlcN6P” value is less than 1e-05 s⁻¹.

Turning to G9U C10A, the “self-cleavage kobs at 640 uM GlcN6P” value in data set [1] is less than 1e-05 s⁻¹. Besides, the “self-cleavage kobs at 2500 uM GlcN6P” value in data set [2] is less than 1e-05 s⁻¹.

U45G U65G G66U U69C: in data set [1], the “self-cleavage kobs at 640 uM GlcN6P” value was 0.000332 ± 7.1e-05 s⁻¹. Further, the “self-cleavage kobs at 2500 uM GlcN6P” value in data set [2] was 0.00052 ± 0.00017 s⁻¹. Also, in data set [3], the “self-cleavage kobs at 10000 uM GlcN6P” value was 0.00192 ± 0.00028 s⁻¹.

Consider G9A G29A A33C G66A, for which, in data set [1], the “self-cleavage kobs at 640 uM GlcN6P” value is less than 1e-05 s⁻¹.

On to A6C G38U G62C C70U, for which the “self-cleavage kobs at 640 uM GlcN6P” value in data set [1] was less than 1e-05 s⁻¹.

Consider A53G U55A U65G, for which the “self-cleavage kobs at 640 uM GlcN6P” value in data set [1] amounted to 0.000667 ± 8.4e-05 s⁻¹. Moreover, the “self-cleavage kobs at 2500 uM GlcN6P” value in data set [2] amounted to 0.00174 ± 0.00031 s⁻¹.

A14C A42U G63A: the “self-cleavage kobs at 640 uM GlcN6P” value in data set [1] was less than 1e-05 s⁻¹.

G43A G62U C67A: the “self-cleavage kobs at 640 uM GlcN6P” value in data set [1] was less than 1e-05 s⁻¹. For the same variant, the “self-cleavage kobs at 2500 uM GlcN6P” value in data set [2] was less than 1e-05 s⁻¹.

With C11A C58U G59U G62U C70U, the “self-cleavage kobs at 640 uM GlcN6P” value in data set [1] is less than 1e-05 s⁻¹.

With C8G G13U A33U U57G, the “self-cleavage kobs at 640 uM GlcN6P” value in data set [1] was less than 1e-05 s⁻¹. Further, in data set [2], the “self-cleavage kobs at 2500 uM GlcN6P” value is less than 1e-05 s⁻¹.

Regarding G41A A53U U56G G60A, the “self-cleavage kobs at 640 uM GlcN6P” value in data set [1] was less than 1e-05 s⁻¹. Besides, in data set [2], the “self-cleavage kobs at 2500 uM GlcN6P” value is less than 1e-05 s⁻¹.

Consider A15G G29U C70G, for which the “self-cleavage kobs at 640 uM GlcN6P” value in data set [1] turned out to be 0.000143 ± 5e-05 s⁻¹. Further, the “self-cleavage kobs at 2500 uM GlcN6P” value in data set [2] turned out to be 9.63e-05 ± 3.6e-05 s⁻¹.

Consider A36U G43U, for which the “self-cleavage kobs at 640 uM GlcN6P” value in data set [1] was less than 1e-05 s⁻¹. In data set [2], the “self-cleavage kobs at 2500 uM GlcN6P” value is less than 1e-05 s⁻¹.

Consider C11G G38A G43C, for which the “self-cleavage kobs at 640 uM GlcN6P” value in data set [1] is less than 1e-05 s⁻¹. Besides, the “self-cleavage kobs at 2500 uM GlcN6P” value in data set [2] was less than 1e-05 s⁻¹.

Regarding A42G C68G, the “self-cleavage kobs at 640 uM GlcN6P” value in data set [1] turned out to be 7.72e-05 ± 2.8e-05 s⁻¹. Moreover, the “self-cleavage kobs at 2500 uM GlcN6P” value in data set [2] is 0.000308 ± 7.3e-05 s⁻¹. Besides, the “self-cleavage kobs at 10000 uM GlcN6P” value in data set [3] came out at 0.000128 ± 2.2e-05 s⁻¹.

In the case of C8U U30A G62C, the “self-cleavage kobs at 640 uM GlcN6P” value in data set [1] was less than 1e-05 s⁻¹.

In the case of C8G C10U G38A U65G C68G, in data set [1], the “self-cleavage kobs at 640 uM GlcN6P” value amounted to 4.45e-05 ± 1.9e-05 s⁻¹.

C10G G66U: in data set [1], the “self-cleavage kobs at 640 uM GlcN6P” value was less than 1e-05 s⁻¹. In addition, the “self-cleavage kobs at 2500 uM GlcN6P” value in data set [2] is less than 1e-05 s⁻¹. In addition, the “self-cleavage kobs at 10000 uM GlcN6P” value in data set [3] is less than 1e-05 s⁻¹.

As to C16U A48C G62U, the “self-cleavage kobs at 640 uM GlcN6P” value in data set [1] was less than 1e-05 s⁻¹. Besides, in data set [2], the “self-cleavage kobs at 2500 uM GlcN6P” value is less than 1e-05 s⁻¹.

Take G32C A42U G60A: the “self-cleavage kobs at 640 uM GlcN6P” value in data set [1] was less than 1e-05 s⁻¹.

On to C8U G32A C34G, for which the “self-cleavage kobs at 640 uM GlcN6P” value in data set [1] is less than 1e-05 s⁻¹. Moreover, in data set [2], the “self-cleavage kobs at 2500 uM GlcN6P” value was less than 1e-05 s⁻¹.

In the case of G32C G44U G51U A53U C58G, the “self-cleavage kobs at 640 uM GlcN6P” value in data set [1] is less than 1e-05 s⁻¹.

Take A14G U45G C58U G62A: the “self-cleavage kobs at 640 uM GlcN6P” value in data set [1] is less than 1e-05 s⁻¹. The “self-cleavage kobs at 2500 uM GlcN6P” value in data set [2] was less than 1e-05 s⁻¹.

Take G37U C70G C71A: the “self-cleavage kobs at 640 uM GlcN6P” value in data set [1] is 5.1e-05 ± 1.4e-05 s⁻¹.

In the case of A6G G9U, the “self-cleavage kobs at 640 uM GlcN6P” value in data set [1] was less than 1e-05 s⁻¹. Also, the “self-cleavage kobs at 2500 uM GlcN6P” value in data set [2] was less than 1e-05 s⁻¹. For the same variant, the “self-cleavage kobs at 10000 uM GlcN6P” value in data set [3] is less than 1e-05 s⁻¹.
